Reference: the supplement of paper PMC10567573

B1: ZER1 (parent)
chain: FDGPEAWGVCEPQREEVEERMWAA

Variants of: B1
Assay: protein stability index of a GFP-peptide fusion (GPS, HEK-293T) (PSI 1-6); higher = more stable
Conditions: c terminus: a fixed tail appended
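Further: lentivirally expressed fusions sorted by FACS into six bins by GFP to DsRed ratio, PSI derived from sequencing read proportions per bin multiplied by bin number.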

Variant | protein stability index
FDGPEAWGVCEPYREEVEERMWAA | 2.39
FDGPEAWGVCEPQREEVELRMWAA | 2.17
FDGPEAWGVCEPQREEVERRMWAA | 2.35
FDGPEAWGVCEPQREEVECRMWAA | 2.05
FDGPEAWGVCEPQREEVEDRMWAA | 2.48
FDGPEAWGVCEPQREEVEGRMWAA | 2.15
FDGPEAWGVCEPQREEVEWRMWAA | 2.05
FDGPEAWGVCEPQREEVEVRMWAA | 1.98
FDGPEAWGVCEPQREEVEHRMWAA | 1.91
FDGPEAWGVCEPQREEVETRMWAA | 2.87
FDGPEAWGVCEPQREEVEYRMWAA | 1.94
FDGPEAWGVCEPQREEVEIRMWAA | 2.09
FDGPEAWGVCEPQREEVEFRMWAA | 2.1
FDGPEAWGVCEPQREEVEPRMWAA | 2.21
FDGPEAWGVCEPQREEVEQRMWAA | 2.55
FDGPEAWGVCEPQREEVEARMWAA | 2.68
FDGPEAWGVCEPQREEVEKRMWAA | 3.35
FDGPEAWGVCEPQREEVESRMWAA | 2.45
FDGPEAWGVCEPQREEVENRMWAA | 2.4
FDGPEAWGVCEPQREEVEMRMWAA | 2.22
FDGPEAWGVCEPQREEYEERMWAA | 2.75
FDGPEAWGVCEPQREENEERMWAA | 3.28
FDGPEAWGVCEPQREEIEERMWAA | 2.26
FDGPEAWGVCEPQREEDEERMWAA | 2.61

Variant | protein stability index
FDGPEAWGVCEPQREEMEERMWAA | 2.26
FDGPEAWGVCEPQREECEERMWAA | 2.3
FDGPEAWGVCEPQREEREERMWAA | 2.24
FDGPEAWGVCEPQREETEERMWAA | 2.47
FDGPEAWGVCEPQREEFEERMWAA | 3.62
FDGPEAWGVCEPQREEGEERMWAA | 2.36
FDGPEAWGVCEPQREEWEERMWAA | 2.44
FDGPEAWGVCEPQREEQEERMWAA | 2.55
FDGPEAWGVCEPQREEAEERMWAA | 2.27
FDGPEAWGVCEPQREESEERMWAA | 2.64
FDGPEAWGVCEPQREELEERMWAA | 2.34
FDGPEAWGVCEPQREEHEERMWAA | 2.77
FDGPEAWGVCEPQREEKEERMWAA | 2.41
FDGPEAWGVCEPQREEEEERMWAA | 3.18
FDGPEAWGVCEPQREEPEERMWAA | 2.65
FDGPEAWGVCEPQREEVDERMWAA | 2.68
FDGPEAWGVCEPQREEVRERMWAA | 2.53
FDGPEAWGVCEPQREEVMERMWAA | 1.84
FDGPEAWGVCEPQREEVPERMWAA | 2.69
FDGPEAWGVCEPQREEVFERMWAA | 2.5
FDGPEAWGVCEPQREEVNERMWAA | 1.92
FDGPEAWGVCEPQREEVAERMWAA | 2.27
FDGPEAWGVCEPQREEVKERMWAA | 1.57
FDGPEAWGVCEPQREEVCERMWAA | 2

Variant | protein stability index
FDGPEAWGVCEPQREEVSERMWAA | 2.52
FDGPEAWGVCEPQREEVQERMWAA | 1.95
FDGPEAWGVCEPQREEVHERMWAA | 3.04
FDGPEAWGVCEPQREEVLERMWAA | 2.11
FDGPEAWGVCEPQREEVTERMWAA | 2.62
FDGPEAWGVCEPQREEVYERMWAA | 2.08
FDGPEAWGVCEPQREEVIERMWAA | 2.21
FDGPEAWGVCEPQREEVWERMWAA | 2.04
FDGPEAWGVCEPQREEVGERMWAA | 3.36
FDGPEAWGVCEPQREEVVERMWAA | 2.12
FDGPEAWGVCEPQRREVEERMWAA | 2.79
FDGPEAWGVCEPQRFEVEERMWAA | 1.56
FDGPEAWGVCEPQRTEVEERMWAA | 2.62
FDGPEAWGVCEPQRDEVEERMWAA | 2.43
FDGPEAWGVCEPQRPEVEERMWAA | 1.46
FDGPEAWGVCEPQRYEVEERMWAA | 2.32
FDGPEAWGVCEPQRMEVEERMWAA | 2.34
FDGPEAWGVCEPQRHEVEERMWAA | 1.79
FDGPEAWGVCEPQRWEVEERMWAA | 1.52
FDGPEAWGVCEPQRGEVEERMWAA | 2.19
FDGPEAWGVCEPQRCEVEERMWAA | 3.02
FDGPEAWGVCEPQRSEVEERMWAA | 2.13
FDGPEAWGVCEPQRVEVEERMWAA | 2.63
FDGPEAWGVCEPQRNEVEERMWAA | 2.31

Variant | protein stability index
FDGPEAWGVCEPQRKEVEERMWAA | 2.92
FDGPEAWGVCEPQRLEVEERMWAA | 2.2
FDGPEAWGVCEPQRQEVEERMWAA | 2.5
FDGPEAWGVCEPQRIEVEERMWAA | 2.02
FDGPEAWGVCEPQRAEVEERMWAA | 2.45
FDGPEAWGVCEPQREVVEERMWAA | 2.02
FDGPEAWGVCEPQREKVEERMWAA | 1.98
FDGPEAWGVCEPQRENVEERMWAA | 2.37
FDGPEAWGVCEPQREYVEERMWAA | 2.11
FDGPEAWGVCEPQREWVEERMWAA | 1.63
FDGPEAWGVCEPQREGVEERMWAA | 2.04
FDGPEAWGVCEPQREDVEERMWAA | 2.14
FDGPEAWGVCEPQRESVEERMWAA | 2.25
FDGPEAWGVCEPQREPVEERMWAA | 2.04
FDGPEAWGVCEPQREHVEERMWAA | 2.66
FDGPEAWGVCEPQREFVEERMWAA | 2.62
FDGPEAWGVCEPQRELVEERMWAA | 1.62
FDGPEAWGVCEPQREIVEERMWAA | 2.34
FDGPEAWGVCEPQREMVEERMWAA | 1.99
FDGPEAWGVCEPQRETVEERMWAA | 2.72
FDGPEAWGVCEPQRECVEERMWAA | 2.24
FDGPEAWGVCEPQREAVEERMWAA | 2.33
FDGPEAWGVCEPQRERVEERMWAA | 2.16
FDGPEAWGVCEPQREEVEERWWAA | 2.46

Variant | protein stability index
FDGPEAWGVCEPQREEVEERHWAA | 2.21
FDGPEAWGVCEPQREEVEERIWAA | 2.63
FDGPEAWGVCEPQREEVEERFWAA | 2.24
FDGPEAWGVCEPQREEVEERYWAA | 2.39
FDGPEAWGVCEPQREEVEERNWAA | 2.2
FDGPEAWGVCEPQREEVEERVWAA | 3.45
FDGPEAWGVCEPQREEVEERQWAA | 2.89
FDGPEAWGVCEPQREEVEERGWAA | 3.27
FDGPEAWGVCEPQREEVEERPWAA | 2.47
FDGPEAWGVCEPQREEVEERAWAA | 3.06
FDGPEAWGVCEPQREEVEERLWAA | 2.71
FDGPEAWGVCEPQREEVEEREWAA | 3.56
FDGPEAWGVCEPQREEVEERSWAA | 2.38
FDGPEAWGVCEPQREEVEERTWAA | 2.4
FDGPEAWGVCEPQREEVEERDWAA | 3.16
FDGPEAWGVCEPQREEVEERKWAA | 2.76
FDGPEAWGVCEPQREEVEERRWAA | 2.69
FDGPEAWGVCEPQREEVEERCWAA | 2.46
FDGPEAWGVCEPQREEVEERMKAA | 2.75
FDGPEAWGVCEPQREEVEERMNAA | 3.17
FDGPEAWGVCEPQREEVEERMMAA | 2.61
FDGPEAWGVCEPQREEVEERMDAA | 3.75
FDGPEAWGVCEPQREEVEERMVAA | 3.44
FDGPEAWGVCEPQREEVEERMCAA | 3.17

Variant | protein stability index
FDGPEAWGVCEPQREEVEERMPAA | 3.57
FDGPEAWGVCEPQREEVEERMEAA | 3.79
FDGPEAWGVCEPQREEVEERMIAA | 2.63
FDGPEAWGVCEPQREEVEERMAAA | 2.79
FDGPEAWGVCEPQREEVEERMRAA | 3.59
FDGPEAWGVCEPQREEVEERMQAA | 2.73
FDGPEAWGVCEPQREEVEERMYAA | 3.73
FDGPEAWGVCEPQREEVEERMLAA | 2.42
FDGPEAWGVCEPQREEVEERMSAA | 3.25
FDGPEAWGVCEPQREEVEERMFAA | 2.57
FDGPEAWGVCEPQREEVEERMGAA | 2.81
FDGPEAWGVCEPQREEVEERMHAA | 2.62
FDGPEAWGVCEPQREEVEERMTAA | 3.4
FDGPEAWGVCEPQREEVEERMWEA | 2.44
FDGPEAWGVCEPQREEVEERMWMA | 3.08
FDGPEAWGVCEPQREEVEERMWLA | 2.23
FDGPEAWGVCEPQREEVEERMWKA | 2.77
FDGPEAWGVCEPQREEVEERMWHA | 2.58
FDGPEAWGVCEPQREEVEERMWGA | 2.9
FDGPEAWGVCEPQREEVEERMWIA | 2.64
FDGPEAWGVCEPQREEVEERMWWA | 2.3
FDGPEAWGVCEPQREEVEERMWVA | 2.47
FDGPEAWGVCEPQREEVEERMWFA | 2.16
FDGPEAWGVCEPQREEVEERMWPA | 2.66

Variant | protein stability index
FDGPEAWGVCEPQREEVEERMWDA | 3.41
FDGPEAWGVCEPQREEVEERMWNA | 2.93
FDGPEAWGVCEPQREEVEERMWQA | 2.61
FDGPEAWGVCEPQREEVEERMWTA | 2.67
FDGPEAWGVCEPQREEVEERMWCA | 2.46
FDGPEAWGVCEPQREEVEERMWSA | 2.62
FDGPEAWGVCEPQREEVEERMWRA | 2.61
FDGPEAWGVCEPQVEEVEERMWAA | 2.16
FDGPEAWGVCEPQLEEVEERMWAA | 1.8
FDGPEAWGVCEPQYEEVEERMWAA | 2.46
FDGPEAWGVCEPQHEEVEERMWAA | 2.31
FDGPEAWGVCEPQTEEVEERMWAA | 2.54
FDGPEAWGVCEPQIEEVEERMWAA | 2.97
FDGPEAWGVCEPQQEEVEERMWAA | 2.09
FDGPEAWGVCEPQSEEVEERMWAA | 2.56
FDGPEAWGVCEPQWEEVEERMWAA | 2.52
FDGPEAWGVCEPQDEEVEERMWAA | 2.88
FDGPEAWGVCEPQEEEVEERMWAA | 3.16
FDGPEAWGVCEPQNEEVEERMWAA | 2.86
FDGPEAWGVCEPQFEEVEERMWAA | 2.74
FDGPEAWGVCEPQMEEVEERMWAA | 3.08
FDGPEAWGVCEPQCEEVEERMWAA | 2.25
FDGPEAWGVCEPQAEEVEERMWAA | 2.18
FDGPEAWGVCEPQGEEVEERMWAA | 3.36

Variant | protein stability index
FDGPEAWGVCEPQPEEVEERMWAA | 3.26
FDGPEAWGVCEPQREEVEELMWAA | 2.55
FDGPEAWGVCEPQREEVEEVMWAA | 2.67
FDGPEAWGVCEPQREEVEEKMWAA | 2.34
FDGPEAWGVCEPQREEVEEGMWAA | 2.96
FDGPEAWGVCEPQREEVEESMWAA | 2.79
FDGPEAWGVCEPQREEVEEMMWAA | 3.09
FDGPEAWGVCEPQREEVEEEMWAA | 3.17
FDGPEAWGVCEPQREEVEEYMWAA | 2.5
FDGPEAWGVCEPQREEVEECMWAA | 2.6
FDGPEAWGVCEPQREEVEEIMWAA | 2.27
FDGPEAWGVCEPQREEVEEAMWAA | 3.1
FDGPEAWGVCEPQREEVEETMWAA | 3.23
FDGPEAWGVCEPQREEVEEWMWAA | 2.15
FDGPEAWGVCEPQREEVEEHMWAA | 2.55
FDGPEAWGVCEPQREEVEEFMWAA | 2.65
FDGPEAWGVCEPQREEVEEQMWAA | 2.77
FDGPEAWGVCEPQREEVEEPMWAA | 2.92
FDGPEAWGVCEPQREEVEEDMWAA | 2.94
FDGPEAWGVCEPQREEVEENMWAA | 2.75
